Assay results: patent publication US20210206832A1 (Regeneron, published 2021)

Assays:
[1] = biological target: T1, recombinant VEGF MiniTrap (dimer) MT5 (human); test: affinity chromatography on the mAb1 column, repeated run, 19.6 mg MT5 loaded
T1 construct: also called VEGF MiniTrap 5
T1 chain: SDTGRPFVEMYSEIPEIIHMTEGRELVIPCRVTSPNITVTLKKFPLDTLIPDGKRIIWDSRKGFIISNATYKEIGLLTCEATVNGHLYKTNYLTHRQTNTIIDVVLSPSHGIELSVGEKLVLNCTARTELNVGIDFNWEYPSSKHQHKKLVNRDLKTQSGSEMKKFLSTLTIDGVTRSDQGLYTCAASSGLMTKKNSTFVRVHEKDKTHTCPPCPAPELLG

[2] = biological target: T1, recombinant VEGF MiniTrap (dimer) MT5; test: affinity chromatography on the mAb1 column, repeated run, 19.7 mg MT5 loaded

B1: mAb1 (a mouse anti-VEGFR1 mAb human IgG1) (antibody)
heavy: not shown
light: DIQMTQSPSSLSASLGGKVTITCTTSQDSNNYIAWYQHKPGKGPRLLIHYASTLQPGIPSRFSGSGSGRDYSFSISNLEPEDIATYFCLQYDYLWTFGGGTKLELKRTVAAPSVFIFPPSDEQLKSGTASVVCLLNNFYPREAKVQWKVDNALQSGNSQESVTEQDSKDSTYSLSSTLTLSKADYEKHKVYACEVTHQGLSSPVTKSFNRGEC
For B1, the “Eluate” value [1] was 2 mg and the “Eluate” value [2] was 1.8 mg.
